Source: the supplement of paper PMC7125110
± gives the standard error. This sample holds only a part of the variants without activity.

B1: glmS ribozyme (parent)
chain: AUAAAAGCGCCAGAACUACAGAAAUGUAGUUGACGAGGAGGAGGUUUAUCGAAUUUUCGGCGGAUGCCUCCAAA

Columns and labels:
Conditions in all cases: with glucosamine-6-phosphate
glucosamine-6-phosphate [1] = variants of: B1; assay: self-cleavage kobs at 160 uM GlcN6P; higher = faster cleavage; RNA array
In short: (§1)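 kobs was derived by fitting per-tile medians to one- or two-exponential decays after normalising signals to baseline and to non-cleaving reference variants. Those signals came from barcoded ribozyme variants transcribed in situ by E. coli RNA polymerase on sequenced MiSeq chips, followed through a hybridised Cy3 probe at 37 °C and imaged over ~14 h. Glucosamine-6-phosphate (40 μM to 10 mM) in HEPES/KCl/Mg(OAc)2 buffer was flowed in. Weighted Michaelis–Menten fits across concentrations then gave kcat and KM.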

glucosamine-6-phosphate [2] = variants of: B1; assay: self-cleavage kobs at 2500 uM GlcN6P; higher = faster cleavage; RNA array
In short: as §1

glucosamine-6-phosphate [3] = variants of: B1; assay: self-cleavage kobs at 640 uM GlcN6P; higher = faster cleavage; RNA array
In short: as §1

glucosamine-6-phosphate [4] = variants of: B1; assay: self-cleavage kobs at 10000 uM GlcN6P; higher = faster cleavage; RNA array
In short: as §1

Variant	self-cleavage kobs at 160 uM GlcN6P (glucosamine-6-phosphate [1]) [s⁻¹]	self-cleavage kobs at 2500 uM GlcN6P (glucosamine-6-phosphate [2]) [s⁻¹]	self-cleavage kobs at 640 uM GlcN6P (glucosamine-6-phosphate [3]) [s⁻¹]	self-cleavage kobs at 10000 uM GlcN6P (glucosamine-6-phosphate [4]) [s⁻¹]
C8A C16A G40C U65G	< 1e-05	< 1e-05		
C8G A52G	< 1e-05	< 1e-05	< 1e-05	< 1e-05
G7C C16G	< 1e-05		< 1e-05	< 1e-05
G9A A36C G41U A64G C70U	< 1e-05	< 1e-05	< 1e-05	< 1e-05
C8U A42U A64C U69C	< 1e-05		< 1e-05	
C8G G51U A64U	< 1e-05		< 1e-05	
C10A A48C U56C	< 1e-05		< 1e-05	
C8A C16U U31C G38A U56C	< 1e-05			< 1e-05
G7A A48U A53U U65A	< 1e-05		< 1e-05	
G7U C71U	< 1e-05			< 1e-05
C8G G59A C71G	< 1e-05			
A6G G9U G13C C34A	< 1e-05	< 1e-05	< 1e-05	
G7C U45G G59A	< 1e-05	< 1e-05	< 1e-05	< 1e-05
G9C U56G A64C	< 1e-05	< 1e-05	< 1e-05	
G9C U46G C67G	< 1e-05			
A6G C50U U55C	< 1e-05	< 1e-05	< 1e-05	< 1e-05
A6U U45A A53C	< 1e-05	4.74e-05 ± 2.2e-05	4.01e-05 ± 1.9e-05	
G7U U47A A52C A53U U55G C61U	< 1e-05	< 1e-05	< 1e-05	
G7U C16G G43U C67G	< 1e-05		< 1e-05	
C10A A14G	< 1e-05			3.58e-05 ± 1.1e-05
C8G G40U C61A C71U	< 1e-05			
G9U G41C U47G	< 1e-05	< 1e-05	< 1e-05	
C8G G35U G66A	< 1e-05		< 1e-05	
A6U A14U G38U C50A G51U A53C G63A	< 1e-05			
C8G C11G G43A	< 1e-05	< 1e-05	< 1e-05	
C8A G13A G37U C67U C68U	8.8e-05 ± 3.5e-05		0.000297 ± 8.5e-05	

Variant	self-cleavage kobs at 160 uM GlcN6P (glucosamine-6-phosphate [1]) [s⁻¹]	self-cleavage kobs at 2500 uM GlcN6P (glucosamine-6-phosphate [2]) [s⁻¹]	self-cleavage kobs at 640 uM GlcN6P (glucosamine-6-phosphate [3]) [s⁻¹]	self-cleavage kobs at 10000 uM GlcN6P (glucosamine-6-phosphate [4]) [s⁻¹]
C8U G32A U45A U56C	< 1e-05	< 1e-05	< 1e-05	< 1e-05
C8U U30C G59U	< 1e-05	< 1e-05	< 1e-05	
C8A U31C A48U G51A G59C	< 1e-05	< 1e-05	< 1e-05	
C10G U45C U49A U54G C70G	< 1e-05		< 1e-05	
C8U G29U C34U U46G A53G	< 1e-05	< 1e-05	< 1e-05	
C8A G38U	< 1e-05	< 1e-05		
A6G G38A G43U A48U A52C U69G	< 1e-05	< 1e-05		
C10A C68G	0.000416 ± 0.00019	6.4e-05 ± 1.8e-05	6.2e-05 ± 2.8e-05	
C8G C10U G51U A53U	< 1e-05		< 1e-05	
A6G U47C U55C C71U	< 1e-05	< 1e-05	< 1e-05	
C8U A15U U31G	< 1e-05		< 1e-05	
G7A C11A A52U C70A	< 1e-05	< 1e-05	< 1e-05	
G9C G37A U46A A52U G60A C61A	< 1e-05	< 1e-05		
C8U G40U G43U	< 1e-05	< 1e-05	< 1e-05	
C10A U57A A64G C67G C71A	0.000245 ± 7.6e-05	8.51e-05 ± 3.3e-05		
G9C U46G	< 1e-05		< 1e-05	< 1e-05
G9A U30G G59C	< 1e-05		< 1e-05	
G9A G38A G51A	< 1e-05	< 1e-05	< 1e-05	
C8G U47G U54A G63U	< 1e-05	< 1e-05	< 1e-05	
C8A A15C C34A G38A C68G	0.000422 ± 0.00011	0.00055 ± 0.00013	0.000341 ± 8.5e-05	
G7U G32U A33C U47A G59A	< 1e-05			
A6G U46C U57G	< 1e-05			
C8A A48C C68G	< 1e-05		< 1e-05	
G7C U45A	< 1e-05	< 1e-05	< 1e-05	< 1e-05
A6U C11U	< 1e-05			
C8U G32U C50G	0.000945 ± 0.00017	0.000269 ± 8.5e-05	0.000695 ± 0.00016	

Variant	self-cleavage kobs at 160 uM GlcN6P (glucosamine-6-phosphate [1]) [s⁻¹]	self-cleavage kobs at 2500 uM GlcN6P (glucosamine-6-phosphate [2]) [s⁻¹]	self-cleavage kobs at 640 uM GlcN6P (glucosamine-6-phosphate [3]) [s⁻¹]	self-cleavage kobs at 10000 uM GlcN6P (glucosamine-6-phosphate [4]) [s⁻¹]
C8U U56A	< 1e-05	< 1e-05	< 1e-05	
G7C G13U A36C C68A	< 1e-05	< 1e-05		
C10U A12G G35C	< 1e-05			
A6U G41U C68A	< 1e-05	< 1e-05		
G9A U65G	< 1e-05		< 1e-05	
G9U C10G C11U C70U	< 1e-05	< 1e-05		
G9C C50G	0.00045 ± 0.00018			
G7U A12U C67U	< 1e-05		< 1e-05	
C8U A15U	< 1e-05	< 1e-05	< 1e-05	
C8U G32A	< 1e-05	< 1e-05		< 1e-05
G9A G29U A36C	< 1e-05	< 1e-05	< 1e-05	
G9A C11A G35A U47C C68A	< 1e-05	< 1e-05		
C10A U55A C67G	6.55e-05 ± 3e-05		0.000418 ± 0.00019	
A6U G32C G62U	< 1e-05			
C8G U56A G62U	< 1e-05	< 1e-05	< 1e-05	
G9U A52C	< 1e-05	< 1e-05		
G9A A36U C68U	< 1e-05		< 1e-05	
G9U G40A	< 1e-05	< 1e-05	< 1e-05	< 1e-05
C10A G35A A39G	< 1e-05	< 1e-05		
A6U C8U C70U	< 1e-05	< 1e-05		< 1e-05
G7C G13C A48G C70A	< 1e-05	< 1e-05	< 1e-05	
C8G C71G	< 1e-05	< 1e-05	< 1e-05	< 1e-05
C8U C61G	< 1e-05	< 1e-05	< 1e-05	< 1e-05
G9U G43A G66U	< 1e-05	< 1e-05		
G7U G60C G66U	< 1e-05			
C8G G13C U30G C68G C70G	0.000998 ± 0.00044			

Variant	self-cleavage kobs at 160 uM GlcN6P (glucosamine-6-phosphate [1]) [s⁻¹]	self-cleavage kobs at 2500 uM GlcN6P (glucosamine-6-phosphate [2]) [s⁻¹]	self-cleavage kobs at 640 uM GlcN6P (glucosamine-6-phosphate [3]) [s⁻¹]	self-cleavage kobs at 10000 uM GlcN6P (glucosamine-6-phosphate [4]) [s⁻¹]
G7C G32C G41U U47G U56C	< 1e-05	< 1e-05	< 1e-05	
C10A U31C U57A A64U	< 1e-05			
G7U C34G	< 1e-05		< 1e-05	
C8G C58A C67A	< 1e-05	< 1e-05	< 1e-05	
C8U G32C U47A	< 1e-05	< 1e-05	< 1e-05	
G7U A15C A36U U47C	< 1e-05	< 1e-05	< 1e-05	
C10U A12C U31G A42G	< 1e-05			
C8A G63A	< 1e-05	< 1e-05		< 1e-05
G7U G41U G59U A64G	< 1e-05	< 1e-05		< 1e-05
G9C A36C	< 1e-05	< 1e-05	< 1e-05	< 1e-05
C8A C10U	< 1e-05		< 1e-05	
C10A A42U	< 1e-05	< 1e-05	< 1e-05	
C8A G9A G37U A39G	< 1e-05			
C8A G13U G35U C68G	0.000168 ± 3.8e-05			
A6U G44U C61U	< 1e-05	< 1e-05	< 1e-05	
C8U A12C G43C U49C	< 1e-05	< 1e-05	< 1e-05	< 1e-05
C10U A12G U31A A36C C58A	< 1e-05			
G7C A36G A39G C67U	< 1e-05	< 1e-05	< 1e-05	
A6U G32U	< 1e-05	< 1e-05	< 1e-05	
G9U G32C	< 1e-05		< 1e-05	< 1e-05
G7U G62A C67A	< 1e-05	< 1e-05	< 1e-05	
C8U A14U G37U G41U	< 1e-05	< 1e-05	< 1e-05	
A6U U30G G44U A53C	< 1e-05	< 1e-05	< 1e-05	
A6G G7U A14G A33C	< 1e-05			
